{
  "source": "patent US20150044237A1",
  "about": "(CENTRE NATIONAL DE LA RECHERCHE SCIENTIFIQUE, published 2015)",
  "molecules": {"B1": {"name": "D2FasL (ligand, human)", "chain": "TPQQLNCETHDLKEIICSWNPGRVTALVGPRATSYTLVESFSGKYVRLKRAEAPTNESYQLLFQMLPNQEIYNFTLNAHNPLGRSQSTILVNITEKVYPHTPTSFKVKDINSTAVKLSWHLPGNFAKINFLCEIEIKKSNSVQEQRNVTIKGVENSSYLVALDKLNPYTLYTFRIRCSTETFWKWSKWSNKKQHLTTEASQKELAELRESTSQMHTASSLEKQIGHPSPPPEKKELRKVAHLTGKSNSRSMPLEWEDTYGIVLLSGVKYKKGGLVINETGLYFVYSKVYFRGQSCNNLPLSHKVYMRNSKYPQDLVMMEGKMMSYCTTGQMWARSSYLGAVFNLTSADHLYVNVSELSLVNFEESQTFFGLYKL", "notes": "domain: D2"}, "B2": {"name": "D1IgD2FasL (ligand, human)", "chain": "QKKGAPHDLKCVTNNLQVWNCSWKAPSGTGRGTDYEVCIENRSRSCYQLEKTSIKIPALSHGDYEITINSLHDFGSSTSKFTLNEQNVSLIPDTPEILNLSADFSTSTLYLKWNDRGSVFPHRSNVIWEIKVLRKESMELVKLVTHNTTLNGKDTLHHWSWASDMPLECAIHFVEIRCYIDNLHFSGLEEWSDWSPVKNISWIPDSQTKVFPQDKVILVGSDITFCCVSQEKVLSALIGHTNCPLIHLDGENVAIKIRNISVSASSGTNVVFTTEDNIFGTVIFAGYPPDTPQQLNCETHDLKEIICSWNPGRVTALVGPRATSYTLVESFSGKYVRLKRAEAPTNESYQLLFQMLPNQEIYNFTLNAHNPLGRSQSTILVNITEKVYPHTPTSFKVKDINSTAVKLSWHLPGNFAKINFLCEIEIKKSNSVQEQRNVTIKGVENSSYLVALDKLNPYTLYTFRIRCSTETFWKWSKWSNKKQHLTTEASQKELAELRESTSQMHTASSLEKQIGHPSPPPEKKELRKVAHLTGKSNSRSMPLEWEDTYGIVLLSGVKYKKGGLVINETGLYFVYSKVYFRGQSCNNLPLSHKVYMRNSKYPQDLVMMEGKMMSYCTTGQMWARSSYLGAVFNLTSADHLYVNVSELSLVNFEESQTFFGLYKL"}, "B3": {"name": "Recombinant Fas-Fc (R&Dsystems) (Fc fusion, UniProt P25445 26-173, looked up)", "chain": "QVTDINSKGLELRKTVTTVETQNLEGLHHDGQFCHKPCPPGERKARDCTVNGDEPDCVPCQEGKEYTDKAHFSSKCRRCRLCDEGHGLEVEINCTRTQNTKCRCKPNFFCNSTVCEHCDPCTKCEHGIIKECTLTSNTKCKEEGSRSN", "notes": "not shown: Fc part"}},
  "key": {"[1]": {"biological_target": "T1, Fas (CD95/APO-1) on Jurkat cells (human, UniProt P25445 26-335)", "T1 sequence (looked up)": "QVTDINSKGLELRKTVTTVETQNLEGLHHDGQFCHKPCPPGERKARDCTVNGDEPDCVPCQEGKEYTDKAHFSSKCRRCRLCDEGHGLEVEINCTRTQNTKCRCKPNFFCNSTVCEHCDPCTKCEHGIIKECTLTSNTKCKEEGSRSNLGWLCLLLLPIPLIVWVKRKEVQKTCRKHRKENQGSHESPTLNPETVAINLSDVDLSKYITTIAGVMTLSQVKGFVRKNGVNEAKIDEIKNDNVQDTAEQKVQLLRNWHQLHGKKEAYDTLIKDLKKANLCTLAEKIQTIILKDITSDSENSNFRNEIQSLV", "experiment": "cell-based or functional assay"}, "HLA-pfFasL (human)": {"biological_target": "HLA-pfFasL (human)", "experiment": "cell-based or functional assay"}, "[2]": {"biological_target": "T1, Fas (CD95/APO-1) on Jurkat cells", "experiment": "cell-based or functional assay", "remark": "listed apart in the source"}, "[3]": {"biological_target": "T1, Fas (CD95/APO-1) on Jurkat cells", "experiment": "cell-based or functional assay", "remark": "listed apart in the source"}, "[4]": {"biological_target": "B3", "experiment": "SPR (BIAcore 3000), Fas-Fc immobilised on CM5 chip", "protocol": "(§1) The experiments were carried out on a BIAcore 3000 optical biosensor (GE healthcare, Chalfont, UK). The FasL chimeras were produced as COS supernatants in Opti-MEM medium, concentrated 100 times, dialyzed against PBS and sterilized by filtration. Recombinant Fas-Fc (R&Dsystems, Minneapolis, Minn.) was covalently coupled to a carboxymethyl dextran flow cell (CM5, BIAcore) following the manufacturer's recommendations. The level of immobilization was 2,000 resonance units (RU). Binding of the FasL chimeras was assayed at concentrations ranging from 0.2 to 100 nM for IgFasL, 0.2 to 44 nM for cFasL, 0.2 to 37.5 nM for D2FasL, and 0.25 to 8 nM for D1IgD2FasL, in Hepes-buffered saline, at a 30 μl/min flow rate. Association was monitored for 5 min before initiating the dissociation phase for another 11 min with Hepes-buffered saline. The flow cell was regenerated with 4M MgCl2. The sensorgrams were analyzed using the BIAeval 4.1 software (BIAcore). The background of the Opti-MEM medium was at 30 RU.\n(§2) The affinity of the FasL chimeras for Fas was measured using the surface plasmon resonance Biacore® method, against recombinant Fas-Fc immobilized on a chip. IgFasL, D2FasL, D1IgD2FasL and sFasL as a control, were produced as supernatants in COS cells cultured in serum-free medium, concentrated 100 times, and dialysed against PBS."}, "[5]": {"biological_target": "B3", "experiment": "SPR (BIAcore), Fas-Fc immobilised on chip, FasL construct as analyte; reference cFasL", "protocol": "as §1, §2"}, "D1IgD2FasL": {"biological_target": "B2", "experiment": "SPR (BIAcore 3000), Fas-Fc immobilised on CM5 chip, FasL construct as analyte", "protocol": "as §1, §2"}, "D2FasL": {"biological_target": "B1", "experiment": "SPR (BIAcore 3000), Fas-Fc immobilised on CM5 chip, FasL construct as analyte", "protocol": "as §1, §2"}, "cleaved FasL (cFasL)": {"biological_target": "T2, cleaved FasL (cFasL) (human, UniProt P48023 127-281)", "T2 construct": "range 127-281; Supernatant of COS cells transfected with wild-type FasL; also called spontaneously cleaved membrane FasL; metalloprotease-cleaved FasL", "T2 sequence (looked up)": "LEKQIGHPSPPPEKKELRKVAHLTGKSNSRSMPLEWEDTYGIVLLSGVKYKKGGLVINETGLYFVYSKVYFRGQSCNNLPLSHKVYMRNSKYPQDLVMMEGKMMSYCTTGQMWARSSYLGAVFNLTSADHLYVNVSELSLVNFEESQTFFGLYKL", "experiment": "SPR (BIAcore 3000), Fas-Fc immobilised on CM5 chip, FasL construct as analyte", "protocol": "as §1, §2"}, "[6]": {"biological_target": "B3", "experiment": "SPR (BIAcore 3000), Fas-Fc immobilised on CM5 chip, FasL construct as analyte", "protocol": "as §1, §2"}},
  "note": "Values joined by “and” are separate entries in the source; they are usually repeats but may differ in a detail not shown here. Equal entries are not always repeated. Where two headings read alike, the source gives them in different places.",
  "data": [
    {"molecule": "Flag-tagged sFasL (sfFasL) (from UniProt P48023 108-281) (ligand)", "values": [
      {"measurement": "cytotoxicity EC50 on the Jurkat cell line (MTT assay)", "setting": "[1]", "value": "> 3", "unit": "µg/mL"},
      {"measurement": "cytotoxicity on Jurkat cells, activity against pfFasL (fold less active than pfFasL)", "setting": "[1]", "value": "> 5000"}
    ]},
    {"molecule": "anti-β2 microglobulin mAb (clone B2M-01) (antibody)", "values": [
      {"measurement": "enhancement of the cytotoxicity of HLA-pfFasL on CD32+ L-cells by pre-formed immune complexes", "setting": "HLA-pfFasL (human)", "value": 2.5, "unit": "fold"}
    ]},
    {"molecule": "Anti-human Fas agonistic mAb 7C11 (IgM) (antibody)", "values": [
      {"measurement": "concentration required to kill 50% of the Jurkat cells", "setting": "[1]", "value": 2, "unit": "ng/mL"}
    ]},
    {"molecule": "anti-Flag mAb (clone M2) (antibody)", "values": [
      {"measurement": "enhancement of the cytotoxicity of HLA-pfFasL on CD32+ L-cells by pre-formed immune complexes", "setting": "HLA-pfFasL (human)", "value": 2.5, "unit": "fold"}
    ]},
    {"molecule": "soluble FasL (sFasL) (ligand) QKELAELRESTSQMHTASSLEKQIGHPSPPPEKKELRKVAHLTGKSNSRSMPLEWEDTYGIVLLSGVKYKKGGLVINETGLYFVYSKVYFRGQSCNNLPLSHKVYMRNSKYPQDLVMMEGKMMSYCTTGQMWARSSYLGAVFNLTSADHLYVNVSELSLVNFEESQTFFGLYKL", "values": [
      {"measurement": "cytotoxicity EC50 on the Jurkat cell line (MTT assay)", "setting": "[2]", "value": "> 3", "unit": "µg/mL"},
      {"measurement": "cytotoxicity on Jurkat cells, activity against pfFasL", "setting": "[3]", "value": "≥ 5000 fold less active than pfFasL"}
    ]},
    {"molecule": "polymeric Flag-tagged soluble FasL (pfFasL) (ligand, not shown: small tags and cut ends) IPDSQTKVFPQDKVILVGSDITFCCVSQEKVLSALIGHTNCPLIHLDGENVAIKIRNISVSASSGTNVVFTTEDNIFGTVISRALQKELAELRESTSQMHTASSLEKQIGHPSPPPEKKELRKVAHLTGKSNSRSMPLEWEDTYGIVLLSGVKYKKGGLVINETGLYFVYSKVYFRGQSCNNLPLSHKVYMRNSKYPQDLVMMEGKMMSYCTTGQMWARSSYLGAVFNLTSADHLYVNVSELSLVNFEESQTFFGLYKL", "values": [
      {"measurement": "cytotoxicity EC50 on the Jurkat cell line (MTT assay)", "setting": "[2]", "value": "0.6 ng/mL and 15.5 pM"}
    ]},
    {"molecule": "B1", "values": [
      {"measurement": "fold difference of Kd against cFasL", "setting": "[4]", "value": 2, "unit": "fold"},
      {"measurement": "cell death of Jurkat cells (MTT assay), potency against IgFasL", "setting": "[3]", "value": "12.5 fold less potent than IgFasL"},
      {"measurement": "fold affinity against cFasL (Kd ratio)", "setting": "[5]", "value": 2, "unit": "fold"}
    ]},
    {"molecule": "B2", "values": [
      {"measurement": "cell death of Jurkat cells (MTT assay), potency against IgFasL", "setting": "[3]", "value": "125 fold less potent than IgFasL"}
    ]},
    {"molecule": "B3", "values": [
      {"measurement": "Kd", "setting": "D1IgD2FasL", "value": 25.6, "unit": "nM"},
      {"measurement": "koff", "setting": "D1IgD2FasL", "value": 0.0033, "unit": "s⁻¹"},
      {"measurement": "kon", "setting": "D1IgD2FasL", "value": 130000, "unit": "M⁻¹ s⁻¹"},
      {"measurement": "Kd", "setting": "D2FasL", "value": 38.5, "unit": "nM"},
      {"measurement": "koff", "setting": "D2FasL", "value": 0.006, "unit": "s⁻¹"},
      {"measurement": "kon", "setting": "D2FasL", "value": 160000, "unit": "M⁻¹ s⁻¹"},
      {"measurement": "Kd", "setting": "cleaved FasL (cFasL)", "value": 69.4, "unit": "nM"},
      {"measurement": "koff", "setting": "cleaved FasL (cFasL)", "value": 0.0059, "unit": "s⁻¹"},
      {"measurement": "kon", "setting": "cleaved FasL (cFasL)", "value": 84000, "unit": "M⁻¹ s⁻¹"}
    ]},
    {"molecule": "IgFasL (ligand, also called pFasL; polymeric FasL) IPDSQTKVFPQDKVILVGSDITFCCVSQEKVLSALIGHTNCPLIHLDGENVAIKIRNISVSASSGTNVVFTTEDNIFGTVISRALQKELAELRESTSQMHTASSLEKQIGHPSPPPEKKELRKVAHLTGKSNSRSMPLEWEDTYGIVLLSGVKYKKGGLVINETGLYFVYSKVYFRGQSCNNLPLSHKVYMRNSKYPQDLVMMEGKMMSYCTTGQMWARSSYLGAVFNLTSADHLYVNVSELSLVNFEESQTFFGLYKL", "values": [
      {"measurement": "fold difference of Kd against cFasL", "setting": "[4]", "value": 6, "unit": "fold"},
      {"measurement": "fold affinity against cFasL (Kd ratio)", "setting": "[5]", "value": 6, "unit": "fold"},
      {"measurement": "Kd", "setting": "[6]", "value": 11.6, "unit": "nM"},
      {"measurement": "koff", "setting": "[6]", "value": 0.00041, "unit": "s⁻¹"},
      {"measurement": "kon", "setting": "[6]", "value": 25000, "unit": "M⁻¹ s⁻¹"}
    ]}
  ]
}
